For 2 molecules, EC50 results are on record in patent US20140295495A1 (Biogen, published 2014).

For the experiment, the target named is T1, human antigen that binds to mAb1 (human, UniProt Q96FE5 42-538, limits assumed).
T1 sequence (looked up): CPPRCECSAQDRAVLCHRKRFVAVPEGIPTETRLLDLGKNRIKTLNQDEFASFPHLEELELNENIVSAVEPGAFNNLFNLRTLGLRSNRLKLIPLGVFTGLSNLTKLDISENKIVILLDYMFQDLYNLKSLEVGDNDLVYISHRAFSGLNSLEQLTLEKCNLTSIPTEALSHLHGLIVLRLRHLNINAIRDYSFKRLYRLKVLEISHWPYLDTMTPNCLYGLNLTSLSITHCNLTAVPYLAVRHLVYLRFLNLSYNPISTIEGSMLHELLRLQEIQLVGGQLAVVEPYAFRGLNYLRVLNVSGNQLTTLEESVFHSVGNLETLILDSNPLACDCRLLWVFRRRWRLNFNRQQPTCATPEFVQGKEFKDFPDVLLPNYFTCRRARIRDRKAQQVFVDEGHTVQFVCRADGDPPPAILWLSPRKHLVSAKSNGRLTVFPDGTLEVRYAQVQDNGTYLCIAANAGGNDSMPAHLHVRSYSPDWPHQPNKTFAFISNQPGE
Put plainly: direct binding ELISA, antigen coated on the plate, detection with AP-anti-human Fab.

Procedure: Plates were washed 3 times with 350 μL of PBS using a plate washer and blocked with 1% BSA, 0.1% ovalbumin, and 0.1% non-fat dry milk in Hank's balanced salt buffer containing 25 mM HEPES (pH 7.0) for 1 hour at room temperature. Plates were then washed again, and incubated for 1 h with a 3-fold dilution series set up for each test compound (50 μL/well, 8 dilutions) starting at 10 μg/mL and all in 0.1% BSA, 0.1% ovalbumin, and 0.1% non-fat dry milk in Hank's balanced salt buffer containing 25 mM HEPES (pH 7.0), and again washed. […] Plates were read at 405 nm on a Molecular Devices plate reader. EC₅₀ values for binding were calculated from the titration curve using prism software.

B1: mAb1-C (mAb1, anti-LINGO-1 antibody Li81, aglycosyl human IgG1; preparation with 39% trisulfide at the LC5-HC5 linkage) (antibody, V domains shown)
VH: EVQLLESGGGLVQPGGSLRLSCAASGFTFSAYEMKWVRQAPGKGLEWVSVIGPSGGFTFYADSVKGRFTISRDNSKNTLYLQMNSLRAEDTAVYYCATEGDNDAFDIWGQGTTVTVSS
VL: DIQMTQSPATLSLSPGERATLSCRASQSVSSYLAWYQQKPGQAPRLLIYDASNRATGIPARFSGSGSGTDFTLTISSLEPEDFAVYYCQQRSNWPMYTFGQGTKLEIK
modifications: 39% trisulfide at the LC5-HC5 linkage (heavy-light interchain Cys linkage)
Regarding B1, the EC50 stood at 0.02 nM.

B2: mAb1-A (mAb1, anti-LINGO-1 antibody Li81, aglycosyl human IgG1; preparation with about 0.5% trisulfide at the LC5-HC5 linkage) (antibody, V domains shown)
VH: EVQLLESGGGLVQPGGSLRLSCAASGFTFSAYEMKWVRQAPGKGLEWVSVIGPSGGFTFYADSVKGRFTISRDNSKNTLYLQMNSLRAEDTAVYYCATEGDNDAFDIWGQGTTVTVSS
VL: DIQMTQSPATLSLSPGERATLSCRASQSVSSYLAWYQQKPGQAPRLLIYDASNRATGIPARFSGSGSGTDFTLTISSLEPEDFAVYYCQQRSNWPMYTFGQGTKLEIK
modifications: about 0.5% trisulfide at the LC5-HC5 linkage (heavy-light interchain Cys linkage)
notes: also called mAb-A
Molecule B2 gave a concentration giving a half-maximal response (EC50) of 0.02 nM.
